Results published in PMC3025556.

T1: NIP7 (human, recombinant) (Homo sapiens, UniProt Q9Y221 1-180)
T1 sequence: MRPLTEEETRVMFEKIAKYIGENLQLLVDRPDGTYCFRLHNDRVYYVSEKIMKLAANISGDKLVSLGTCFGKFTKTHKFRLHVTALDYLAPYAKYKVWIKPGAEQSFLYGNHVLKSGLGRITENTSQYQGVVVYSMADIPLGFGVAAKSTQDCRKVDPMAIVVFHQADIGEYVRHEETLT

T2: Nip7p (yeast) (Saccharomyces cerevisiae, UniProt Q08962 1-181)
T2 sequence: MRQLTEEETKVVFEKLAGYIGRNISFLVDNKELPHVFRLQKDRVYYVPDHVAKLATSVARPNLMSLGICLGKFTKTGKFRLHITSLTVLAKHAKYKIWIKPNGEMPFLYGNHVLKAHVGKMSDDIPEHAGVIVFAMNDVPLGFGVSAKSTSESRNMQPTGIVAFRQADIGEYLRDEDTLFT


Legend:
[1] = target: T1, NIP7 (human, recombinant); test: EMSA
Nip7p (yeast) = target: T2, Nip7p (yeast); test: EMSA

Binder | binding result [1] | binding result (Nip7p (yeast))
UUAUUAUUUAUUUAUUAUUUA (ssRNA) [poly-AU(21)] | binds | –
UUUUUUUUUUUUUUUUUUUU (ssRNA) [poly-U(20)] | – | binds
